Measured values reported in publication PMC8482478, “N-acetylmannosamine-6-phosphate 2-epimerase uses a novel substrate-assisted mechanism to catalyze amino sugar epimerization” (The Journal of Biological Chemistry, 2021).

Target: the molecule itself
Experiment: AUC; sedimentation velocity, 0.5 mg/ml SaNanE in 20 mM Tris pH 8.0, 150 mM NaCl, 50,000 rpm, 20 °C; c(s) and c(M) models in SEDFIT

B1: N-acetylmannosamine-6-phosphate 2-epimerase (NanE) from Staphylococcus aureus, wildtype (enzyme, S. aureus USA300)
chain: MLPHGLIVSCQALPDEPLHSSFIMSKMALAAYEGGAVGIRANTKEDILAIKETVDLPVIGIVKRDYDHSDVFITATSKEVDELIESQCEVIALDATLQQRPKETLDELVSYIRTHAPNVEIMADIATVEEAKNAARLGFDYIGTTLHGYTSYTQGQLLYQNDFQFLKDVLQSVDAKVIAEGNVITPDMYKRVMDLGVHCSVVGGAITRPKEITKRFVQIMED
notes: N-acetylmannosamine-6-phosphate 2-epimerase (NanE) of S. aureus USA300; also called SaNanE; wildtype SaNanE
stoichiometry N: 2
